{
  "source": "paper PMC11336091",
  "binders": {"B1": {"name": "BmOSER1 promoter EMSA probe (dsDNA)", "DNA 1": "TGTATTAAAAACTTATATAAACTGTGATCT", "DNA 2": "AGATCACAGTTTATATAAGTTTTTAATACA"}},
  "biological_target": "T1, BmFoxO (Bombyx mori, UniProt H9BVM3 1-512)",
  "T1 sequence": "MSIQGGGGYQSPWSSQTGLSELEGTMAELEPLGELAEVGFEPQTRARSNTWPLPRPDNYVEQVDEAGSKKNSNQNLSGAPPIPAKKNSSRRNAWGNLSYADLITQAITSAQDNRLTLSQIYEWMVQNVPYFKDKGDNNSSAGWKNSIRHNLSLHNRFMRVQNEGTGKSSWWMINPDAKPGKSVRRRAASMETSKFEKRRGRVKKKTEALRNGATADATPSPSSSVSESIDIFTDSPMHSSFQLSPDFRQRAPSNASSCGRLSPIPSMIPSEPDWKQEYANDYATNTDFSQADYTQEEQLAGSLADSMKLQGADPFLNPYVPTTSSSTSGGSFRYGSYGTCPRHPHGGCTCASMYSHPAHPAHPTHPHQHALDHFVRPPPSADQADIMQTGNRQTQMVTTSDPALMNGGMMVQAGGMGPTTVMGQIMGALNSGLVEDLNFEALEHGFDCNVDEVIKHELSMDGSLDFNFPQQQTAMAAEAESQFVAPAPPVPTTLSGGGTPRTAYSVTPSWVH",
  "assay": "EMSA",
  "data": [
    {"binder": "B1", "values": [
      {"measurement": "binding result", "result": "binds"}
    ]}
  ]
}
